# Results from patent US20180291082A1 (IMMATICS BIOTECHNOLOGIES, published 2018).
# Assays:
# [1] = target: T1, HLA-B*44:02 (human); assay: UV-ligand exchange, anti-b2m ELISA; exchange yield grade (+ >10%, ++ >20%, +++ >50, ++++ >75%)
# T1 construct: Peptide-receptive MHC monomer made by UV cleavage of a UV-sensitive peptide
# From the text: (§1) Candidate peptides for T cell based therapies according to the present invention were further tested for their MHC binding capacity (affinity). The individual peptide-MHC complexes were produced by UV-ligand exchange, where a UV-sensitive peptide is cleaved upon UV-irradiation, and exchanged with the peptide of interest as analyzed. Only peptide candidates that can effectively bind and stabilize the peptide-receptive MHC molecules prevent dissociation of the MHC complexes. To determine the yield of the exchange reaction, an ELISA was performed based on the detection of the light chain (β2m) of stabilized MHC complexes. The assay was performed as generally described in Rodenko et al. (Rodenko et al., 2006).
# (§2) 96 well MAXISorp plates (NUNC) were coated over night with 2 ug/ml streptavidin in PBS at room temperature, washed 4× and blocked for 1 h at 37° C. in 2% BSA containing blocking buffer. Refolded HLA-A*02:01/MLA-001 monomers served as standards, covering the range of 15-500 ng/ml. Peptide-MHC monomers of the UV-exchange reaction were diluted 100-fold in blocking buffer. Samples were incubated for 1 h at 37° C., washed four times, incubated with 2 ug/ml HRP conjugated anti-β2m for 1 h at 37° C., washed again and detected with TMB solution that is stopped with […]. Absorption was measured at 450 nm. Candidate peptides that show a high exchange yield (preferably higher than 50%, most preferred higher than 75%) are generally preferred for a generation and production of antibodies or fragments thereof, and/or T cell receptors or fragments thereof, as they show sufficient avidity to the MHC molecules and prevent dissociation of the MHC complexes.
# [2] = target: T2, HLA-A*03:01 (human); assay: as above
# T2 construct: Peptide-receptive MHC monomer made by UV cleavage of a UV-sensitive peptide
# From the text: as §1, §2
Binder,peptide exchange yield [1] [%],peptide exchange yield [2] [%]
AEKQTPDGRKY,20 to 50,–
FSLAGALNAGFK,–,20 to 50
GEHTSKATL,20 to 50,–
DESEKTTKSF,20 to 50,–
KEITGFLLI,50 to 75,–
LQEEKVPAIY,10 to 20,–
EELLHGQLF,20 to 50,–
AEERAEAKKKF,20 to 50,–
KENFAGEATL,20 to 50,–
KEFNLQNMGL,50 to 75,–
AENAEYLRV,20 to 50,–
KIIAPLVTR,–,20 to 50
FELPTGAGL,20 to 50,–
KMMADYGIRK,–,50 to 75
IEALLESSL,20 to 50,–
HELENHSMY,20 to 50,–
KESQLPTVM,20 to 50,–
AEQPDGLIL,20 to 50,–
EEAPLVTKAF,20 to 50,–
AEQTGTWKL,20 to 50,–
EEKLIIQDF,20 to 50,–
GTESGTILK,–,20 to 50
AEAVLKTLQEL,50 to 75,–

Binder,peptide exchange yield [1] [%],peptide exchange yield [2] [%]
GEELGFASL,20 to 50,–
AENLFRAFL,50 to 75,–
KIKEHVRSK,–,20 to 50
ARLTPIPFGL,10 to 20,–
AEHDAVRNAL,50 to 75,–
ATMQSKLIQK,–,50 to 75
EEESLLTSF,50 to 75,–
EEVDVPIKLY,20 to 50,–
EEAKQVLFL,20 to 50,–
IIAKKYFFK,–,20 to 50
LEMPHYSTF,> 75,–
GSAALYLLR,–,20 to 50
GVIIAKKYFFK,–,20 to 50
AEIHTAEI,20 to 50,–
GEATLQRIY,10 to 20,–
DEYLIPQQGF,50 to 75,–
EEFETLKEF,20 to 50,–
KLYPTYSTK,–,20 to 50
AEETCAPSV,20 to 50,–
KESDGFHRF,50 to 75,–
AEKDGKLTDY,20 to 50,–
ALLGVIIAK,–,20 to 50

# Next, values leading:
peptide exchange yield [1] [%],peptide exchange yield [2] [%],Binder
20 to 50,–,TEKEMIQKL
50 to 75,–,NEINEKIAPSF
50 to 75,–,NEISTFHNL
20 to 50,–,YEVDTVLRY
50 to 75,–,MELLLVNKL
20 to 50,–,TEVLDSHIHAY
20 to 50,–,SEPINIIDAL
50 to 75,–,SENPETITY
50 to 75,–,TEHTQSQAAW
50 to 75,–,TEATMTFKY
10 to 20,–,TTMDQKSLW
–,20 to 50,RLSPNDQYK
20 to 50,–,REAEPIPKM
50 to 75,–,SEAFPSRAL
–,20 to 50,STQDTLLIK
20 to 50,–,SENIVIQVY
> 75,–,QEVLLQTFL
50 to 75,–,SESAVFHGF
–,20 to 50,RMPPPLPTR
> 75,–,SEVPVARVW
